In patent publication US6762290, “High affinity vascular endothelial growth factor (VEGF) receptor nucleic acid ligands and inhibitors” (Gilead Sciences, Inc.):
Residue numbers refer to the chain shown, from its start.

B1: K13 (ssRNA)
RNA: GGGAGGACGAUGCGGAACCAAUUAAGUCUGGCAAAUCUCUCUGUGCAGACGACUCGCCCGA
modifications: 2'-F pyrimidines
B2: K7 (ssRNA)
RNA: GGGAGGACGAUGCGGACGAUAACACAGGGCCUGCUUGGAUCACACUGAUUGCGCCCAGACGACUCGCCCGA
modifications: 2'-F pyrimidines
B3: K1 (ssRNA)
RNA: GGGAGGACGAUGCGGGGCCUGUUUGGAUCAUACCGAUCGUCAAUCCAAGAGUGGUCAGACGACUCGCCCGA
modifications: 2'-F pyrimidines
B4: K2 (ssRNA)
RNA: B3 RNA with A47U, G49A
modifications: 2'-F pyrimidines
B5: K23 (ssRNA)
RNA: GGGAGGACGAUGCGGACACACACAUCAUAAACAUUGUCCGUUGACCAGACGACUCGCCCGA
modifications: 2'-F pyrimidines
B6: K10 (ssRNA)
RNA: GGGAGGACGAUGCGGUUGAUCGAGGUUCUAAGGCCUAUUUCCUGACUUUCUCCCCCAGACGACUCGCCCGA
modifications: 2'-F pyrimidines
B7: K11 (ssRNA)
RNA: B6 RNA with G32A
modifications: 2'-F pyrimidines
B8: K12 (ssRNA)
RNA: GGGAGGACGAUGCGGAAACGGAAGAAUUGGAGACCGACGUCGACCUCUUGGCCCCAGACGACUCGCCCGA
modifications: 2'-F pyrimidines
B9: K4 (ssRNA)
RNA: GGGAGGACGAUGCGGAGGUGCUCCUUUGGAACUUCGUAUUUGUCUGCUCCUGGUCAGACGACUCGCCCGA
modifications: 2'-F pyrimidines
B10: K5 (ssRNA)
RNA: GGGAGGACGAUGCGGCAUGGGGCCUGACUGGAUCAUACCACCGCUUCCUCUGGUCAGACGACUCGCCCGA
modifications: 2'-F pyrimidines
B11: K3 (ssRNA)
RNA: B10 RNA with C47U
modifications: 2'-F pyrimidines
B12: K21 (ssRNA)
RNA: GGGAGGACGAUGCGGAUCAUACCGAAGAGACACGGGGCCACCAUAUCCUCACCCCCAGACGACUCGCCCGA
modifications: 2'-F pyrimidines

Tests used:
[1] = biological target: T1, VEGFR2 (KDR) extracellular domain/Fc (Homo sapiens, UniProt P35968 P35968:20-764); experiment: filter; 30N clone; conditions: tags: C-terminal human IgG1 Fc fusion with Factor Xa site and His6; R&D Systems; NSO mouse myeloma cells; chain copies: 2 (stated, disulfide-linked homodimer)
T1 sequence (P35968 20-764, one chain of several): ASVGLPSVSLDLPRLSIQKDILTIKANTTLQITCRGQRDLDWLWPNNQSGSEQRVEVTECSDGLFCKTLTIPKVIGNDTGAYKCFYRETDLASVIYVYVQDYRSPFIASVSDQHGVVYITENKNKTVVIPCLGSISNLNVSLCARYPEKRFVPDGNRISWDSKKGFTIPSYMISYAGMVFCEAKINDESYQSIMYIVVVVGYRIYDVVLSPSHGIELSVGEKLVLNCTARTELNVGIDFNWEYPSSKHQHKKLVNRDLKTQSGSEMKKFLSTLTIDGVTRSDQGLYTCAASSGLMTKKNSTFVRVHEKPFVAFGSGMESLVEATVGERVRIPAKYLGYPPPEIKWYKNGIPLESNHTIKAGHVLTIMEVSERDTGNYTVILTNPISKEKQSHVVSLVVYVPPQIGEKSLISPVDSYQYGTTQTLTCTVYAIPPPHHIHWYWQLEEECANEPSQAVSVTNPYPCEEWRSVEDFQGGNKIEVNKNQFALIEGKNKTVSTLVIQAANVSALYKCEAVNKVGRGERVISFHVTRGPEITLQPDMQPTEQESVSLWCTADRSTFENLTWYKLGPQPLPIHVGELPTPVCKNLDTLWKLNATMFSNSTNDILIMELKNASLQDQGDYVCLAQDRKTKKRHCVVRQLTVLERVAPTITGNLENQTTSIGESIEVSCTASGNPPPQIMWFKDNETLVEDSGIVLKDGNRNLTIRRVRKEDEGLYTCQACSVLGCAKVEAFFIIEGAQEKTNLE

[2] = biological target: T1, VEGFR2 (KDR) extracellular domain/Fc; experiment: filter; conditions: tags: C-terminal human IgG1 Fc fusion with Factor Xa site and His6; R&D Systems; NSO mouse myeloma cells; chain copies: 2 (stated, disulfide-linked homodimer)
[3] = biological target: T2, VEGF receptors on HUVEC (VEGFR2/KDR) (Homo sapiens, UniProt P35968 P35968:20-1356); experiment: competition; inhibition of 125I-VEGF-165 binding to HUVEC, DPBS with Ca, Mg, room temperature
T2 sequence (P35968 20-1356, one chain of several): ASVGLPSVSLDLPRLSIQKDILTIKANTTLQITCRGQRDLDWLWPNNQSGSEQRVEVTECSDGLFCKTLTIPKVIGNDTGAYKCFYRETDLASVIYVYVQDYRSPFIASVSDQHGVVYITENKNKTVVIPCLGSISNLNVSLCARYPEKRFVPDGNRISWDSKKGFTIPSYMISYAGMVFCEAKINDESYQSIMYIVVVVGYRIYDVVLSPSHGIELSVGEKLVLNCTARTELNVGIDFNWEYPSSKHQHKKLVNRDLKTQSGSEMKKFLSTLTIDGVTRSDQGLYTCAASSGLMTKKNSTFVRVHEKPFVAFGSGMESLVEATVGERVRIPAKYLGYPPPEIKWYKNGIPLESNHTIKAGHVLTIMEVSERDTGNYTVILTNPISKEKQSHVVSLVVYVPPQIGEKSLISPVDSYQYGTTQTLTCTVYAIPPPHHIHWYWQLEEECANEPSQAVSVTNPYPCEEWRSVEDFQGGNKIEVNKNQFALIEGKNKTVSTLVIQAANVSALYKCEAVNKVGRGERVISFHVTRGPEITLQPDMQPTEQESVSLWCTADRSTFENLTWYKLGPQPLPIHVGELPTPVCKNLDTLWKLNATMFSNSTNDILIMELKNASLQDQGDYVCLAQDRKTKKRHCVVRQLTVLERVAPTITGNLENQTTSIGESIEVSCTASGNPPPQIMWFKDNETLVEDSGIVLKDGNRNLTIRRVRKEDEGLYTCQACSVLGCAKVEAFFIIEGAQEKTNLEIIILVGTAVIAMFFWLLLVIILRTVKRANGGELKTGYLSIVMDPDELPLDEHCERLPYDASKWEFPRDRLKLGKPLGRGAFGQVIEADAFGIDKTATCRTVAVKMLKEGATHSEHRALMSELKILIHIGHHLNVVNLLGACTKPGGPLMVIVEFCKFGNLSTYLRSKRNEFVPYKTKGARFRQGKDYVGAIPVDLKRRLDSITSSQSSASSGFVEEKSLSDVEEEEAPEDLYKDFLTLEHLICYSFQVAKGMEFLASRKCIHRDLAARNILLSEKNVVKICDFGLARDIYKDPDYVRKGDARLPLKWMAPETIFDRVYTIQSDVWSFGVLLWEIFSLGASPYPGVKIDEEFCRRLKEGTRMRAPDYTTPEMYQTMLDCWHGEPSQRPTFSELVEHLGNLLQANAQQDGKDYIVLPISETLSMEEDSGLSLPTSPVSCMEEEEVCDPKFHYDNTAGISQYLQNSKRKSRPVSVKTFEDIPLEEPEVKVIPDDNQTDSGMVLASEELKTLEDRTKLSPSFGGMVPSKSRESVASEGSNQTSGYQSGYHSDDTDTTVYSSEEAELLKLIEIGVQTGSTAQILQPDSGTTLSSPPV
Experimental: (§1) We next examined whether a group of representative aptamers was able to inhibit the binding of [125]I-VEGF-165 to VEGF receptors expressed on HUVECs. Cells were seeded in 96-well plates at a density of about 10,000 cells/well and maintained until confluent. Culture medium was then replaced with growth factor deficient medium (MEM, 5% heat inactivated fetal bovine serum, 1 µg/ml heparin) for 3–4 hours. Cells were then washed with Dulbecco's phosphate-buffered saline (DPBS) (containing 1 mM CaCl_2, 1 mM MgCl_2 and 0.1% bovine serum albumin) followed by the addition of 100 µl/well of DPBS. [125]I-VEGF-165 ([…]) in the presence of varying amounts of aptamers (0.001–1000 nM) was then added to cells for 2 hours at room temperature. Unbound [125]I-VEGF-165 was then removed by washing with DPBS and the cells were lysed with Triton X-100. Lysates were harvested onto glass fiber filters plates and processed for scintillation counting. Aptamers K1, K10, K17 and K21 were tested. […] Thus, among the VEGFR2 aptamers tested, both receptor binding antagonists and non-antagonists have been identified.

[4] = biological target: T1, VEGFR2 (KDR) extracellular domain/Fc; experiment: filter; Table 2 prints CCACGGC where listing has ccaccgc; conditions: tags: C-terminal human IgG1 Fc fusion with Factor Xa site and His6; R&D Systems; NSO mouse myeloma cells; chain copies: 2 (stated, disulfide-linked homodimer)
[5] = biological target: T2, VEGF receptors on HUVEC (VEGFR2/KDR); experiment: competition; inhibition of 125I-VEGF-165 binding to HUVEC
Experimental: as §1

[6] = biological target: T1, VEGFR2 (KDR) extracellular domain/Fc; experiment: filter; circularly permuted family member; conditions: tags: C-terminal human IgG1 Fc fusion with Factor Xa site and His6; R&D Systems; NSO mouse myeloma cells; chain copies: 2 (stated, disulfide-linked homodimer)

Binder | Kd [2] [nM] | also measured
B1 | – | Kd [1]: 0.75 nM
B2 | 0.46 | –
B3 | 0.07 | –
B4 | 0.27 | –
B5 | – | Kd [1]: 2.2 nM
B6 | 0.47 | IC50 [3]: 1 nM
B7 | 0.61 | –
B8 | 15.4 | –
B9 | 0.28 | –
B10 | 0.44 | –
B11 | – | Kd [4]: 0.51 nM
B12 | – | IC50 [5]: 79 nM; Kd [6]: 0.26 nM
